Data as given in the supplement of paper PMC9170038.

Tested on: MS2 coat protein
Assay: apparent KD of MS2 coat protein; designed switch direction (-1 OFF switch, 1 ON switch): -1; higher = weaker reporter binding
Outline: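 An oligonucleotide input, 200 uM small-molecule ligand, or no input was present during titration of SNAP-549-labelled MS2 coat protein, which was doubled from 0.7 or 1.5 nM to 3 µM. Designed RNA switches had been transcribed on Illumina chips by stalled E. coli RNA polymerase. Apparent KD per design is the median over clusters of curves fitted to normalised cluster fluorescence.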

[1] = Eterna round: R95, input ligand: microRNA oligo, concentration not stated
[2] = Eterna round: R95, input ligand: FMN 200 uM
[3] = Eterna round: R95, input ligand: none
[4] = input ligand: microRNA oligo, concentration not stated

Row | Sequence | apparent KD of MS2 coat protein [1] | apparent KD of MS2 coat protein (input ligand: FMN 200 uM) | apparent KD of MS2 coat protein (input ligand: none) | also measured
1 | GGAUCGAAUGUCAGGAUAUACCACUGGAUACAGUGGUAGAAGGGACAUGAGGAUCACCCAUGUGUUAUCGAUCC [Fiskers BMX 4 - 56] (puzzle: Brourd's mod of Exclusion 4) | 36.5 nM |  |  | 
2 | GGUUGGCGAGGAUAUACAUGAGGAUCACCCAUGUGAGAGACAAAAGUGAGGAAGAAAAGUAGAAGGCGCUGACG [salish99_ex3_r3_022] (puzzle: Exclusion 3) | 84.5 nM |  |  | apparent KD of MS2 coat protein [2]: 2000 nM; apparent KD of MS2 coat protein [3]: 232 nM
3 | GCUUGGCGAGGAUAUACAUGAGGAUCACCCAUGUGAGAGAAAAAAGUGAGGAAGAAAAGUAGAAGGCGCUGAGG [Mat - Exclusion 3 - Mod of Salish D57] (puzzle: Exclusion 3) | 51.2 nM |  |  | apparent KD of MS2 coat protein [2]: 143 nM; apparent KD of MS2 coat protein [3]: 61.8 nM
4 | UAUAUAUAGUAAGGAUAUGUAAUUAUUUUAUCAACAGAAGGUACUGACAUGAGGAUCACCCAUGUUUUAGUGUGGGCAUGUAGA [JMF's solution 49] (Eterna round: R96, puzzle: Exclusion NG 1) |  |  |  | apparent KD of MS2 coat protein [4]: 61.7 nM
5 | UCAACGCAAGGAUAUACUUGCGGUGAUGUUCGAAAUCUUCUACUUGAGGAUCACCCAAGUAGAAGGUGCGGUGA [jl-ex2.4.65 ViennaUCT mod] (Eterna round: R97, puzzle: Exclusion 2) |  | 12.8 nM | 12.9 nM | 
6 | UUUGUUUUGCAAGGAUAUGUUUAAUUUUAUUUUCCUUACACAUGAGGAUCACCCAUGUUAUACUUACAGAAGGUGCGUAAUUUG [Excl-NG2-LRO04] (Eterna round: R96, puzzle: Exclusion NG 2) |  |  |  | apparent KD of MS2 coat protein [4]: 165 nM
7 | AAUAAGCGAGGAUAUGCGGGCGGGUGCGGCCAGCCGAUGUGACAUGAGGAUCACCCAUGUAGAAGGCGCAAUAA [Excls2-VI] (puzzle: Exclusion 2) | 11.4 nM |  |  | apparent KD of MS2 coat protein [2]: 15.9 nM; apparent KD of MS2 coat protein [3]: 10.7 nM
8 | UAAUAAAGUGUGAGGAUAUGCUGGUCGAUAGAUCAGCAGAAGGCACAUGAGGAUCACCCAUGUAAUAUAUUUUA [Mat - Exclusion 4 - JL Mod - D46] (Eterna round: R96, puzzle: Brourd's mod of Exclusion 4) |  | 238 nM | 56.1 nM | apparent KD of MS2 coat protein [4]: 40.6 nM
9 | ACAAGCUUUUUCGUGGGUGACAUGAGGAUCACCCAUGUUUGCCGCGUCUUGUCGUCGUGGACCUGUGGUCCAUGACG [Small mod of -44.6, -64.9 by Sellena] (Eterna round: R97, puzzle: Sensor, turn-off variant 1) |  | 137 nM | 153 nM | 
10 | UUAUGACAUGAGGAUCACCCAUGUAAGGAUAUCGAAGGAGAUGGUUACGAGGCCGCUACGAGAAGGUACGCGGG [Eternabot (L2) Solution 23] (Eterna round: R97, puzzle: Exclusion 1) |  | 161 nM | 109 nM | 
11 | GUAUAUAGUGUGAGGAUAUGCUGGUCCUUGGAUCAGCAGAAGGCACAUGAGGAUCACCCAUGUAGUUUAUUUUG [Mat - Exclusion 4 - JL Mod - D7] (puzzle: Brourd's mod of Exclusion 4) | 16.2 nM |  |  | 
12 | UUUAUGUCAGGAUAUACAUGAGGAUCACCCAUGUAUAUCUAAAAAUAUACAUGGGUAUGUAGAAGGGACCUCCU [Omei Ex3 Pseudoloop 2] (Eterna round: R97, puzzle: Exclusion 3) |  | 52.6 nM | 146 nM | 
13 | UCGGCGCGAGGAUAUGCGGUUUGUGCUUCGGGCCCUCGCGUACAUGAGGAUCACCCAUGUAGAAGGCGCGCCGC [Apr-15 SS2-45] (puzzle: Exclusion 2) | 75.2 nM |  |  | 
14 | UCACCGCAAGGAUAUACUUGCGGUGAUGCUCGAAACUUUCUACUUGAGGAUCACCCAAGUAGAAGGUGCGGUGA [jl-ex2.4.68 ViennaUCT mod] (Eterna round: R97, puzzle: Exclusion 2) |  | 12.1 nM | 13.1 nM | 
15 | ACCAAUGCAGGAUAUACAUGAGGAUCACCCAUGUAUAACCUACAUAGAUGAUCAUCAUGUAGAAGGGCAAUGGA [EX3 229: Super Stable 29] (Eterna round: R96, puzzle: Exclusion 3) |  | 12.2 nM | 14.6 nM | apparent KD of MS2 coat protein [4]: 11.1 nM
16 | UUAUACGUUGAGGAUAUGUCAGUUAGUAUAUUUACAGAAGGCGAUACAUGAGGAUCACCCAUGUUUAUGGGCAU [Ex-6 Malc#3] (puzzle: Exclusion 6) | 127 nM |  |  | 
17 | AGAUAACAUGAGGAUCACCCAUGUCAGGAUAUCGACUGAACAGCUUCGGCUGUUCAGUCGAGAAGGGACAAUUA [Brourdxlusion 9 - Jieux - Exclusion 1] (Eterna round: R97, puzzle: Exclusion 1) |  | 84.1 nM | 61.2 nM | 
18 | ACAGGUUAAGGAUAUACAUGAGGAUCACCCAUGUCGAGUAUCUUGUCAUGCCGCCCAUGUAGAAGGUAACAUGG [Geale] (puzzle: Exclusion 3) | 14.3 nM |  |  | 
19 | CCGGUAGUAGUCAGGAUAUUCGAUUUUCACCAAGCGAAGAAGGGACAUGAGGAUCACCCAUGUUAGGUGAACGG [Eternabot (L2) Solution 68] (Eterna round: R97, puzzle: Brourd's mod of Exclusion 4) |  | 196 nM | 37.6 nM | 
20 | CCUCUGUUAGGAUAUGGCAAAGAUGAGACACACCGACAUUGUUAGAAGGGACAUGAGGAUCACCCAUGUCAGCG [Eternabot (L1) Solution 57] (Eterna round: R97, puzzle: Exclusion 4) |  | 22.8 nM | 21.4 nM | 
21 | AGUAGGUCUACCUUGGUGGAUCUGCAUUUUUGCAGGUGUACAUGAGGAUCACCCAUGUCCUCAUUUGCUCGUCUUAU [JL turnoff v2 99.30] (puzzle: Sensor v3, turn-off variant 2) | 629 nM |  |  | apparent KD of MS2 coat protein [2]: 488 nM; apparent KD of MS2 coat protein [3]: 473 nM
22 | AACCUGAGGCAAAGCUUUAGGUGUACAUGAGGAUCACCCAUGUAGGAUAUGGUAGGCAAAGCUUACCAGAAGGACAUAAUGAUG [Mat - Exclusion NG 3 - Mod of JL - D47] (Eterna round: R96, puzzle: Exclusion NG 3) |  | 100 nM | 83.7 nM | apparent KD of MS2 coat protein [4]: 45.1 nM
23 | UUAGAUUAUUGAGGAUAUGGUUAUUUUUAUUAACCAGAAGGCAAACUCAACAUGAGGAUCACCCAUGUAUAAAGGGUAUUAGUU [JR_ExcNG1_Sub097] (Eterna round: R96, puzzle: Exclusion NG 1) |  |  |  | apparent KD of MS2 coat protein [4]: 71.9 nM
24 | CAGGGUAGAGGAUAUACGUAGGUACAGAUCCGUGUGAUCCUACAUGAGGAUCACCCAUGUAGAAGGCUAGCCUG [LRO-Excl2-06] (puzzle: Exclusion 2) | 332 nM |  |  | 
25 | UUUUUAUAUGAAGGAUAUACUUAACAUGAGGAUCACCCAUGUGGUGUUGUGAGUGAGUGAGUUUAGUAGAAGGUCAAAUAUUUU [JMF's solution 7] (Eterna round: R96, puzzle: Exclusion NG 2) |  | 583 nM | 270 nM | apparent KD of MS2 coat protein [4]: 194 nM
26 | CAGUACUGAGGAUAUACAUGAGGAUCACCCAUGUCUUAAAAGUAGGAUACUACUAUUAGUAGAAGGCAGUACUG [Fiskers Ex 3 828 mod 24] (puzzle: Exclusion 3) | 12.6 nM |  |  | 
